Test results taken from patent publication US11034736B2, “Anti-viral cnidarins” (priority 2014, dated 2021).

Columns and labels:
HIV-1US/92/727 = assay: Anti-HIV evaluation in PHA-stimulated human PBMCs, reverse transcriptase in supernatant; type: cell-based; details: HIV-1US/92/727, human PBMCs, 7 days
Experimental: The cultures were incubated for 7 days at 37° C./5% CO2. Efficacy of the compounds was evaluated by measuring the amount of reverse transcriptase in the culture supernatant and toxicity was evaluated using XTT to measure cell viability. AZT was evaluated in parallel as an assay control.

CEM-SS cells = assay: Direct toxicity to uninfected CEM-SS control cells (XTT); type: cell-based, human
Experimental: A 2,3-bis-[2-methoxy-4-nitro-5-sulfophenyl]-2H-tetrazolium-5-carboxanilide inner salt (XTT)-tetrazolium-based assay was used to determine the anti-HIV activity of CNID-1, -2 and -3 against a T-tropic laboratory strain (HIV-1RF) in T-lymphoblastic CEM-SS cells as described previously (Gulakowski et al., J. Virol. Methods, 33: 87-100 (1991)). CEM-SS cells were maintained in RPMI 1640 media without phenol red and supplemented with 10% fetal bovine serum (BioWhittaker), 2 mM L-glutamine (BioWhittaker), and 50 μg/ml gentamicin (BioWhittaker) (complete medium). Exponentially growing cells were washed and resuspended in complete medium, and a 50 μl aliquot containing 5×10^3 cells was added to individual wells of a 96-well round-bottom microtiter plate containing serial dilutions of the respective cnidarin protein in a volume of 100 μl of medium. Stock supernatants of HIV-1RF were diluted in complete medium to yield sufficient cytopathicity (80-90% cell kill in 6 days), and a 50 μl aliquot was added to appropriate wells. Plates were incubated for 6 days at 37° C. and then stained for cellular viability using XTT.
The HIV reverse transcriptase inhibitor 3′-Azido-3′-deoxythymidine (AZT) was used as a positive control. All assays were carried out in triplicate for all viruses and cells.

HIV-1HXB2 gp41 = HIV-1HXB2 gp41 (Human immunodeficiency virus type 1 group M subtype B, UniProt P04578); details: ELISA, 100 ng/well gp41
Experimental: High protein binding Greiner 96-well plates (VWR, Bridgeport, N.J.) were coated with 1 pmol/well of recombinant HIV-1IIIIB gp120 (Immuno Diagnostics, Woburn, Mass.) or recombinant HIV-1HXB2 gp41 (Vybion Inc., Ithaca, N.Y.) at 4° C. overnight. The wells were emptied and then blocked with 200 μl/well of 3% non-fat dry milk (Bio-Rad, Hercules, Calif.) blocking solution for 2 hrs. A control plate was incubated with blocking solution only. After washing three times with PBST, 0.5-log10 serial dilutions of rCNID-1-Trx were added to triplicate wells of gp120−, gp41− and the blocking solution control plate, and the plates were incubated for 2 hrs. The plates were washed with PBST and 100 W/well of a 1:250 dilution of polyclonal rabbit anti-CNID-1 antibody was added and allowed to incubate for 1 hr, followed by three washes with PBST. Goat anti-rabbit (H+L), peroxidase conjugated secondary antibody (Thermo Fisher Scientific Inc., Rockford, Ill.) was added to each well (100 μl/well of a 1:1000 dilution) and further incubated for 1 hr, followed by three washes with PBST. The TMB 2-component Microwell peroxidase substrate kit (KPL Inc., Gaithersburg, Md.) was used for peroxidase detection: 100 W/well, incubation for 5-10 min and the reaction was stopped by addition of 0.5M HCl (100 W/well) before reading the absorbance at 450 nm.

Macrophage = assay: Cell viability of monocyte/macrophage cultures (CellTiter formazan dye reduction); type: cell-based, human; details: macrophages
Source text: To test the anti-HIV activity of CNID1 against HIV primary isolates in fresh human cells, monocyte-tropic HIV-1 strain Ba-L was obtained from the NIAID AIDS Research and Reference Reagent Program (National Institutes of Health, Bethesda, Md.). The low passage HIV-1 pediatric isolate ROJO was derived as described previously (Buckheit et al., AIDS Res. Hum. Retroviruses, 10: 1497-1506 (1994)). Human peripheral blood mononuclear cells (PBMCs) and macrophages were isolated from hepatitis and HIV seronegative donors following Ficoll-Paque centrifugation as described elsewhere (Gartner & Popovic, Techniques in HIV Research, Aldovini, A. and Walker B., eds., pp. 59-63, Stockton Press, New York, 1990). Antiviral assays were carried out with 3-day-old phytohaemagglutinin/interleukin-2 stimulated PBMCs or 6-day-cultured monocyte/macrophages. […] HIV-1 replication in PBMC (ROJO) or monocyte macrophage (Ba-L) cultures were determined by measurement of reverse transcriptase activity (Buckheit et al., Antiviral Res., 21: 247-265 (1993)) in the supernatants or p24 antigen expression by ELISA (Coulter, Hialeah, Fla.), respectively. Cell viability by formazan dye reduction was determined in replicated cultures using the CellTiter reagent (Promega, Madison, Wis.). […]

Chain of HIV-1HXB2 gp41 (P04578 512-856): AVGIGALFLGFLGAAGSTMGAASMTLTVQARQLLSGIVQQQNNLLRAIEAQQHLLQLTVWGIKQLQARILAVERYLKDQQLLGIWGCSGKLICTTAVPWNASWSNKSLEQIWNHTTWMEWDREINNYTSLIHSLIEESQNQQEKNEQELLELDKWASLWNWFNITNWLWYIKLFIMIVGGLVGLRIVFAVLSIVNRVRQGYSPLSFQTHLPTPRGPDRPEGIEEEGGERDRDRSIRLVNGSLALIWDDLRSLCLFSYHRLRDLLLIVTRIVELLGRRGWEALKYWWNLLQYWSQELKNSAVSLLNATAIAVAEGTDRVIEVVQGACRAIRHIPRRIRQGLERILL

B1: CNID-1: HIV-inhibitory protein from soft coral Synthecium sp.; 172 amino acids, 18,122 Da, SEQ ID NO: 1 (protein)
chain: GRATLGQLKTSTIPPVTFDVPFDGANIPQDVRFTIATVNGGKGALYNAELGESAGHTIVLESDGDHPIPGTFDPKSGRGLDYLPRGLVLFSSHNYVGNMKMYTEPDSDITADFPPGTPFGVSSAITGEGSAFQLNTGIDHTGEFEIIPPNTKRNLAGVFDNEIRSVSPTGGK
HIV-1US/92/727
  EC50: 0.0427 µg/mL
CEM-SS cells
  CC50: 112 nM
HIV-1HXB2 gp41
  Binding to gp41: not gp41
Macrophage
  CC50: 3.56 nM
